The IC50 is the midpoint of a concentration-inhibition curve. Higher therefore signals a need for much substance.

These results are taken from US20250368753A1.

B1: Reference Antibody (antibody, V domains shown)
VH: QVQLVQSGAEVKKPGASVKVSCKASGYTFTSYYMHWVRQAPGQGLEWMGEISPFGGRTNYNEKFKSRVTMTRDTSTSTVYMELSSLRSEDTAVYYCARERPLYASDLWGQGTTVTVSS
VL: DIQMTQSPSSLSASVGDRVTITCRASQGISSALAWYQQKPGKAPKLLIYSASYRYTGVPSRFSGSGSGTDFTFTISSLQPEDIATYYCQQRYSLWRTFGQGTKLEIK
B2: AB-10 (antibody, V domains shown)
VH: B1 VH with S52L, F54S, S105M, L107V
VL: B1 VL with L94V, W95A, R96L
B3: AB-1 (antibody, V domains shown)
VH: B1 VH with S52L, F54G, R57T, E62Q, R100S, L107I
VL: B1 VL with S31T, R54L
B4: AB-3 (antibody, V domains shown)
VH: B1 VH with Y33W, S52D, F54S, R57S, E62Q, K65Q, L107V
VL: B1 VL
B5: AB-7 (antibody, V domains shown)
VH: B1 VH with S52F, F54S, L102F
VL: B1 VL with Y53N, R54L
B6: AB-5 (antibody, V domains shown)
VH: B1 VH with Y33W, F54S, R57S, S105M, L107V
VL: B1 VL
B7: AB-11 (antibody, V domains shown)
VH: B1 VH with T28S, S52D, P53L, F54S, R57S, E62Q, K65Q, S105F, L107V
VL: B1 VL
B8: AB-9 (antibody, V domains shown)
VH: B1 VH with S52K, F54S, R57T, T58S, E99D, A104Y, L107V
VL: B1 VL with S31G, A32S, R91Y, L94N, W95Y, R96W
B9: AB-6 (antibody, V domains shown)
VH: B1 VH with R57T, A104S, L107V
VL: B1 VL with R54L, T56S, R96Y
B10: AB-8 (antibody, V domains shown)
VH: B1 VH with S52L, F54S, S105M, L107I
VL: B1 VL with L94T
B11: AB-4 (antibody, V domains shown)
VH: B1 VH with S52R, F54S, R57S, E99D, A104S, S105M, L107V
VL: B1 VL with R91H, L94S, W95S, R96W
B12: AB-2 (antibody, V domains shown)
VH: B1 VH with E50W, S52E, S105M, L107V
VL: B1 VL with S31G, W95S

Numbering of substitutions follows the chain as printed.

The target of the first experiment is proprotein convertase subtilisin/kexin type 9 (PCSK9) (human) (UniProt Q8NBP7). Nature of the experiment: DELFIA immunoassay (PerkinElmer Cat. #1244-330) on PCSK9.
UniProt Q8NBP7, sequence (Q8NBP7 other isoform, or with tags, fused parts or gaps limits assumed): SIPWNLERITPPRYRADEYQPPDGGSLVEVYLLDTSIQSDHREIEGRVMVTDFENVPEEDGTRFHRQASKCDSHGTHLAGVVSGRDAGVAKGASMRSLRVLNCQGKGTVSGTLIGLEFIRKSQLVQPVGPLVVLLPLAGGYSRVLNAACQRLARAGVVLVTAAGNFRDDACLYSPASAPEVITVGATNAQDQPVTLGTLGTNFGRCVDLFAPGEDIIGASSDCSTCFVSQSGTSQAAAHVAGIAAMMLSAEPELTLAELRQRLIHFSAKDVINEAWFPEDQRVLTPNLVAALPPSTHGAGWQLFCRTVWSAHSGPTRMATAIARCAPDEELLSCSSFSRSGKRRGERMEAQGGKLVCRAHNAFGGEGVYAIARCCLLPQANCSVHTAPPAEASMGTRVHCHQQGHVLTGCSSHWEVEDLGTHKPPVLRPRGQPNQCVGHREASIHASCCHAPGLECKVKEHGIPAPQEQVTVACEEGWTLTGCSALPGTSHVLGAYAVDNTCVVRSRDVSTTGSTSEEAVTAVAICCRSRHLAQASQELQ
Control (antibody): the Relative Binding to PCSK9 Measured by DELIFA Immunoassay came out at 5.2.

The next experiment shares this target. The experiment can be described thus: DELFIA immunoassay (PerkinElmer Cat. #1244-330), full-length IgG on PCSK9.
Regarding B1, the Relative Binding to PCSK9 Measured by DELIFA Immunoassay amounted to 6.6.

In turn, B2 registered a Relative Binding to PCSK9 Measured by DELIFA Immunoassay of 4.3.

As for B3, the Relative Binding to PCSK9 Measured by DELIFA Immunoassay was determined as 1.8.

In turn, B4 had a Relative Binding to PCSK9 Measured by DELIFA Immunoassay of 2.8.

Molecule B5 came in with a Relative Binding to PCSK9 Measured by DELIFA Immunoassay of 2.

In turn, B6 showed a Relative Binding to PCSK9 Measured by DELIFA Immunoassay of 4.3.

In the case of B7, the Relative Binding to PCSK9 Measured by DELIFA Immunoassay was found to be 2.4.

The molecule B8 yielded a Relative Binding to PCSK9 Measured by DELIFA Immunoassay of 3.9.

In the case of B9, the Relative Binding to PCSK9 Measured by DELIFA Immunoassay worked out at 1.8.

Molecule B10 gave a Relative Binding to PCSK9 Measured by DELIFA Immunoassay of 2.9.

As to B11, the Relative Binding to PCSK9 Measured by DELIFA Immunoassay is 2.9.

With B12, the Relative Binding to PCSK9 Measured by DELIFA Immunoassay turned out to be 3.1.

The target is the same in another experiment. The experiment can be described thus: PCSK9 biochemical disruption assay (BPS Biosciences Cat. #72010); antibody disrupts PCSK9 binding to LDL-R.
Turning to B1, the IC50 came out at 20 nM.

Molecule B2 showed an IC50 of 20.1 nM.

B3 displayed a 50% inhibitory concentration (IC50) of 18.4 nM.

B4 displayed an IC50 of 16.1 nM.

On to B5, for which the IC50 amounted to 18.1 nM.

Take B6: the IC50 was 18.9 nM.

Consider B7, for which the IC50 was 20.8 nM.

On to B9, for which the 50% inhibitory concentration (IC50) amounted to 16.5 nM.

The molecule B10 showed an IC50 of 18.4 nM.

Consider B12, for which the IC50 came to 17.2 nM.

Another experiment shares this target. The experiment can be described thus: PCSK9 biochemical disruption assay (BPS Biosciences Cat. #72010); antibody disrupts PCSK9 binding to LDL-R; positive signal but IC50 not reached at the concentrations tested.
In the case of B8, the IC50 is > 53 nM.

Take B11: the IC50 was > 53 nM.
